# Tested on: MS2 coat protein
# Experiment: apparent KD of MS2 coat protein; higher = weaker reporter binding
# Conditions: Eterna round: R107; input ligand: none
# Description: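 RNA-MaP round R107: designed RNA switches with theophylline, tryptophan, arginine or FMN aptamers are transcribed on-chip within common flanks. They are titrated with SNAP-549-labelled MS2 coat protein in RNA-MaP buffer (100 mM Tris pH 7.5, 80 mM KCl, 4 mM MgCl2), without ligand or with the indicated ligand. Median apparent KD per design.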
row,Sequence,apparent KD of MS2 coat protein
1,CGGCCCUCACGUGAGGAUCACCCACGUGAUACCAGCCUGGAAACAGGCCCUUGGCAGCACUAGGUCAUCAAAGAUGACCAAGCCG [TheoAX 27 #OpenEnded #AlternativeMS2],10.7 nM
2,ACGAUAGCACAAGAGGAUCACCCUUGUGAUACCAGCCUGGAAACAGGCCCUUGGCAGCACACAAAUAAAUUGUAACUAUCGAAUA [TheoAX5 #MicroSwitchBubble #AlternativeMS2],23.6 nM
3,GGCCCUGCGGGCGCCCGCAGGGCCGCGGAUACCAGCGAGGUCCAUCGCCCUUGGCAGCCGAACAUGAGGAUCACCCAUGUCGGUG [Same State - Theophylline A Attempt #8 (HarryS)],12.9 nM
4,GGAUGAAACUGAAGGAGCGAGAACACAAGAAUGGGUCAAACAUGAGGAUCACCCAUGUAAUCUCAGGUAGGUCGCAGUAUCCCUU [Exclusion Arginine B GF 10],34.3 nM
5,AAGGAAAAGGCGGCCGCCACUGGAAAGGCGAAAGCCAAGAAAACAUGAGGAUCACCCAUGUCAUGUAGGACCGGGCCAAAAGGAA,21.9 nM
6,CCUCAAUAGACGGCCGCCACUGAAUCAUGCGGAUACAUGAGGAUCACCCAUGUGGGUGUGGUACGCAGGACCGGGUCAAGACCCG [#13 Same State - Tryptophan B],145 nM
7,UGAUGGUACGGAAGGAGCGUGUAAGAACAAGAACAUGAGGAUCACCCAUGUAUUAAUUUAACACAGGUAGGUCGCCGUGUUAUUG [11.H],29.2 nM
8,AGGACGGUCGGAAGGAGCGGUACAUGAGGAUCACCCAUGUACUUCUGGGCAUCCGUAGAGUGCCAGGUAGGUCGCCGAUUGCGGG [XArg-B10],9.36 nM
9,UGUAUGUGAUCUGAUACCAGCUAAUAAGCUUGAGGAUCACCCAAGUGGAGCGGAAACGCAAGCCCUUGGCAGCAGAUCGCAUACU [Denovo 4 #StaticStem #AlternativeMS2],89.3 nM
10,GGACCAUGGAGCGAUACCAGCUUGAGUGUGCUGGCCAGGCACAUGAGGAUCACCCAUGUAAGCCCUUGGCAGCGCUCCAUGGUCC [#1 Exclusion - Theophylline B Attempt #26 (HarryS)],8.39 nM
11,CAAUCAAUCAAUCAAUCAAUCAACCAUGAAGGAGCGUGGGAAACCACAGGUAGGUCGCAUGGAAAACAUGAGGAUCACCCAUGUA [Casablanca],30.9 nM
12,GGUCUCUGGAGCGAUACCAGCUUAAUUGUACUGGCCAGGUACAUGAGGAUCACCCAUGUAAGCCCUUGGCAGCGCUCCAGAGACC [#1 Exclusion - Theophylline B Attempt #12 (HarryS)],12.1 nM
13,AUAAGUGUAAGAUACCGCACGCUGGAGGAAGGAGCGCGGAUUAACGCAGGUAGGUCGCCUCGUACAUGAGGAUCACCCAUGUGGC [#14 Same State - Arginine A],22.5 nM
14,AUGCCUAGUGGAAGGAGCGAGGGUCUUCCCAACAUGAGGAUCACCCAUGUUCUUUUACACCCUCAGGUAGGUCGCCAUUGGGACA [Tilexete],64.6 nM
15,AGAGUCAGACAAAAGUCUGGCUCAACCGAAGGAGCGUCCGAAAGGACAGGUAGGUCGCGGUUACCUGAGGAUCACCCGGGUUCCU [ArgAS 9 #OpenEnded #AlternativeMS2],65 nM
16,GAUAGAACAAAAGUUUUAUCAGUGGGUGAACGAGGACCGGUACGGCCGCCACUCGGACAUGAGGAUCACCCAUGUCCAUGUGAAA [AstrosExyTryA#17],18.1 nM
17,ACAUGAGGAUCACCCAUGUUGCUGACAGAAGGAGCGUGAUUAAGCACAGGUAGGUCGCUGUUGGUAUCGAGCGUUAGCUCGAUAC [SSArg A #8],32 nM
18,GGAUAGGACAGAAGGAGCGACAUGGCGACGAAAGUCGGACCUUCACAUGAGGAUCACCCAUGUCAGGUAGGUCGCUGUCCUAUCG [ArgXB 6 #MS2Gate #StaticStem],48.4 nM
19,CUGACAUGAGGAUCACCCAUGUACACUGAAGGAGCGUCGAGAAUGACAGGUAGGUCGCAGAAUAAUAAUGGUGAUGUUUAGGUAA [Exclusion Arginine A GF 2],20.8 nM
20,UGUAUGGACUGAAGGAGCGGAAGAUAACCUGAGGAUCACCCGGGUAAUAAGGCGAAAGCCUUCCAGGUAGGUCGCAGUCCAUACU,293 nM
21,CCGUCCCUCGGAAGGAGCGGCGCAAUGUAAGGGACCUUUUAUACAUGAGGAUCACCCAUGUGCCAGGUAGGUCGCCGAGAGCGUG [Erxeatge],77.2 nM

# Same assay, conditions: Eterna round: R107; input ligand: theophylline 20 uM
row,Sequence,apparent KD of MS2 coat protein
1,UAAACUACACAUGAGGAUCACCCAUGUGGCCGAGGACCGGUACGGCCGCCACUCGUGUGUUAAUAAAAGAACCGCAAAGUUCUUU [Raesonisso],410 nM
2,GCAUCCUAGUCGGCCGCCACUGGUAUCAACACCUUCACCCGUGUGCACAUGAGGAUCACCCAUGUUAGGACCGGGACUAGGAUGC [SSTryp B #19],12.5 nM
3,ACGAUAGGACCUGAGGAACACCCAGGUGAUACCAGCCUGGAAACAGGCCCUUGGCAGCACCAAUACUCCAAUAACCUAUCGAAUA [TheoAX 12 #MicroSwitchBubble #AlternativeMS2],521 nM
4,AAGACAUGAGGAUCACCCAUGUGUCAUGAAGGAGCGUCGGAAAUGACAGGUAGGUCGCAUGACCGUUGGCGCCGGAAACGGCGCA [SSAA #15],35.3 nM
5,CGGCCCUCACGUGAGGAUCACCCACGUGAUACCAGCCUGGAAACAGGCCCUUGGCAGCACUAGGUCAUCAAAGAUGACCAAGCCG [TheoAX 27 #OpenEnded #AlternativeMS2],14.1 nM
6,ACGAUAGCACAAGAGGAUCACCCUUGUGAUACCAGCCUGGAAACAGGCCCUUGGCAGCACACAAAUAAAUUGUAACUAUCGAAUA [TheoAX5 #MicroSwitchBubble #AlternativeMS2],43.9 nM
7,UAUAUAUAUCACUAACUGUUGUGGACGUCUCGAGGACCGGUACGGCCGCCACUCGGGCGGCCUCACAUGAGGAUCACCCAUGUCC [XTryp A #4],192 nM
8,GGCCCUGCGGGCGCCCGCAGGGCCGCGGAUACCAGCGAGGUCCAUCGCCCUUGGCAGCCGAACAUGAGGAUCACCCAUGUCGGUG [Same State - Theophylline A Attempt #8 (HarryS)],20.4 nM
9,UGUCGGCGUAAGUUGGCAUGUCUUGCUGGUCGAGGACCGGUACGGCCGCCACUCGAUCCUUCGCACAUGAGGAUCACCCAUGUUG [SS Tryp A #25],29.3 nM
10,GGAUGAAACUGAAGGAGCGAGAACACAAGAAUGGGUCAAACAUGAGGAUCACCCAUGUAAUCUCAGGUAGGUCGCAGUAUCCCUU [Exclusion Arginine B GF 10],50 nM
11,AUUAAUAAUAUGUAGACGGCGGAGACGAGACGAGGACCGGUACGGCCGCCACUCGUGUUAGUUAACAUGAGGAUCACCCAUGUUA [#10 Tryptophan A Same State],17.5 nM
12,AAGGAAAAGGCGGCCGCCACUGGAAAGGCGAAAGCCAAGAAAACAUGAGGAUCACCCAUGUCAUGUAGGACCGGGCCAAAAGGAA,26.3 nM
13,CCUCAAUAGACGGCCGCCACUGAAUCAUGCGGAUACAUGAGGAUCACCCAUGUGGGUGUGGUACGCAGGACCGGGUCAAGACCCG [#13 Same State - Tryptophan B],454 nM
14,UGAUGGUACGGAAGGAGCGUGUAAGAACAAGAACAUGAGGAUCACCCAUGUAUUAAUUUAACACAGGUAGGUCGCCGUGUUAUUG [11.H],35.8 nM
15,AGGACGGUCGGAAGGAGCGGUACAUGAGGAUCACCCAUGUACUUCUGGGCAUCCGUAGAGUGCCAGGUAGGUCGCCGAUUGCGGG [XArg-B10],17.5 nM
16,UGUAUGUGAUCUGAUACCAGCUAAUAAGCUUGAGGAUCACCCAAGUGGAGCGGAAACGCAAGCCCUUGGCAGCAGAUCGCAUACU [Denovo 4 #StaticStem #AlternativeMS2],50.6 nM
17,GGACCAUGGAGCGAUACCAGCUUGAGUGUGCUGGCCAGGCACAUGAGGAUCACCCAUGUAAGCCCUUGGCAGCGCUCCAUGGUCC [#1 Exclusion - Theophylline B Attempt #26 (HarryS)],13.3 nM
18,AUCGCACCUGGUGAUACCAGCGUUUGCUCGCGACAUGAGGAUCACCCAUGUGGCCAGUGAUGCCCUUGGCAGCAUGGGCGGUGCA [Same State - Theophylline B (Freestyle 28)],412 nM
19,CAAUCAAUCAAUCAAUCAAUCAACCAUGAAGGAGCGUGGGAAACCACAGGUAGGUCGCAUGGAAAACAUGAGGAUCACCCAUGUA [Casablanca],45.2 nM
